{"source": "patent US20200140562A1", "key": {"[1]": {"biological_target": "human OX40 on cells (CHO-hOX40, 293HEK-hOX40, Jurkat-hOX40, activated primary CD4+ T cells) (human) (UniProt P43489)", "sequence (P43489 29-277)": "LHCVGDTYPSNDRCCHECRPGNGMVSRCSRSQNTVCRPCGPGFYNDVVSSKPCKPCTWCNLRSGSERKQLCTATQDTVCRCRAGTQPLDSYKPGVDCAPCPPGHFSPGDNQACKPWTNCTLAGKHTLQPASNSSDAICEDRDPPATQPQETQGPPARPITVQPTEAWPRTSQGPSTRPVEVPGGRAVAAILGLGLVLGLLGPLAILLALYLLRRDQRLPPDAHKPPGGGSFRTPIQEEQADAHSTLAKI", "experiment": "flow cytometry, CHO-hOX40, 100 nM"}, "[2]": {"biological_target": "human OX40 on cells (CHO-hOX40, 293HEK-hOX40, Jurkat-hOX40, activated primary CD4+ T cells) (human) (UniProt P43489)", "experiment": "flow cytometry, 293HEK-hOX40, 8 nM"}, "[3]": {"biological_target": "human OX40 on cells (CHO-hOX40, 293HEK-hOX40, Jurkat-hOX40, activated primary CD4+ T cells) (human) (UniProt P43489)", "experiment": "flow cytometry, 293HEK-hOX40, 40 nM"}, "[4]": {"biological_target": "human OX40 on cells (CHO-hOX40, 293HEK-hOX40, Jurkat-hOX40, activated primary CD4+ T cells) (human) (UniProt P43489)", "experiment": "flow cytometry, 293HEK-hOX40, 1.6 nM"}, "[5]": {"biological_target": "human OX40 on cells (CHO-hOX40, 293HEK-hOX40, Jurkat-hOX40, activated primary CD4+ T cells) (human) (UniProt P43489)", "experiment": "flow cytometry, 293HEK-hOX40, 200 nM"}, "[6]": {"biological_target": "human OX40_Fc (R&D Systems) (human) (UniProt P43489)", "sequence (P43489 29-216)": "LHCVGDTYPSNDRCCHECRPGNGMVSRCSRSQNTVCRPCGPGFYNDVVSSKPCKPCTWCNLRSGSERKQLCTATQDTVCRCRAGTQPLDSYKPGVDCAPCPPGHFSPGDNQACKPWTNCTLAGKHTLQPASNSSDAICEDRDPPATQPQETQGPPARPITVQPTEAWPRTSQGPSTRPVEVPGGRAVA", "experiment": "BLI, IgG1 on tip, hOX40-Fc 50 nM, avid"}, "[7]": {"biological_target": "cyno OX40_Fc (Acro Biosystems) (cyno)", "experiment": "BLI, IgG1 on tip, cyno OX40-Fc 100 nM, avid"}, "[8]": {"biological_target": "human OX40 on cells (CHO-hOX40, 293HEK-hOX40, Jurkat-hOX40, activated primary CD4+ T cells) (human) (UniProt P43489)", "experiment": "flow cytometry, activated CD4+ T cells, donor 2, 100 nM"}, "[9]": {"biological_target": "human OX40 on cells (CHO-hOX40, 293HEK-hOX40, Jurkat-hOX40, activated primary CD4+ T cells) (human) (UniProt P43489)", "experiment": "flow cytometry, CHO-hOX40, 100 nM blocker, competitor OX40L-hFc-fluorescein"}, "[10]": {"biological_target": "human OX40 on cells (CHO-hOX40, 293HEK-hOX40, Jurkat-hOX40, activated primary CD4+ T cells) (human) (UniProt P43489)", "experiment": "cell-based or functional assay"}}}
{"substance": "11D4, IgG1 OX40 antibody", "values": [{"measurement": "CHO-OX40 binding intensity (MFI)", "setting": "[1]", "result": 169000, "unit": "MFI"}, {"measurement": "MFI", "setting": "[2]", "result": "2.06e+06", "unit": "MFI"}, {"measurement": "MFI", "setting": "[3]", "result": "2.76e+06", "unit": "MFI"}, {"measurement": "MFI", "setting": "[4]", "result": 613000, "unit": "MFI"}, {"measurement": "MFI", "setting": "[5]", "result": "2.41e+06", "unit": "MFI"}, {"measurement": "Kd", "setting": "[6]", "result": 0.613, "unit": "nM"}, {"measurement": "Kd", "setting": "[7]", "result": 5.95, "unit": "nM"}, {"measurement": "MFI", "setting": "[8]", "result": 242000, "unit": "MFI"}, {"measurement": "MFI of OX40L signal on CHO-OX40 cells", "setting": "[9]", "result": 36000, "unit": "MFI"}]}
{"substance": "pogalizumab, human IgG1 OX40 antibody", "values": [{"measurement": "blocking of OX40L-based activation (recombinant OX40L 60 ug/ml), NFkB-luciferase in Jurkat-hOX40", "setting": "[10]", "result": "> 0.08", "unit": "nM"}]}
